Data taken from patent US10087225B2, “Formulation of MK2 inhibitor peptides” (MOERAE MATRIX, INC., priority 2015, dated 2018).

What was measured:
Experiment in all cases: Kinase Profiling Assay
Format in all cases: biochemical
FGFR1(V561M)(h) = FGFR1(V561M)(h) (Homo sapiens, UniProt P11362, V561M)
MuSK(h) = molecular target: T1, MuSK(h) (Homo sapiens, UniProt O15146)
T1 sequence (O15146 24-869): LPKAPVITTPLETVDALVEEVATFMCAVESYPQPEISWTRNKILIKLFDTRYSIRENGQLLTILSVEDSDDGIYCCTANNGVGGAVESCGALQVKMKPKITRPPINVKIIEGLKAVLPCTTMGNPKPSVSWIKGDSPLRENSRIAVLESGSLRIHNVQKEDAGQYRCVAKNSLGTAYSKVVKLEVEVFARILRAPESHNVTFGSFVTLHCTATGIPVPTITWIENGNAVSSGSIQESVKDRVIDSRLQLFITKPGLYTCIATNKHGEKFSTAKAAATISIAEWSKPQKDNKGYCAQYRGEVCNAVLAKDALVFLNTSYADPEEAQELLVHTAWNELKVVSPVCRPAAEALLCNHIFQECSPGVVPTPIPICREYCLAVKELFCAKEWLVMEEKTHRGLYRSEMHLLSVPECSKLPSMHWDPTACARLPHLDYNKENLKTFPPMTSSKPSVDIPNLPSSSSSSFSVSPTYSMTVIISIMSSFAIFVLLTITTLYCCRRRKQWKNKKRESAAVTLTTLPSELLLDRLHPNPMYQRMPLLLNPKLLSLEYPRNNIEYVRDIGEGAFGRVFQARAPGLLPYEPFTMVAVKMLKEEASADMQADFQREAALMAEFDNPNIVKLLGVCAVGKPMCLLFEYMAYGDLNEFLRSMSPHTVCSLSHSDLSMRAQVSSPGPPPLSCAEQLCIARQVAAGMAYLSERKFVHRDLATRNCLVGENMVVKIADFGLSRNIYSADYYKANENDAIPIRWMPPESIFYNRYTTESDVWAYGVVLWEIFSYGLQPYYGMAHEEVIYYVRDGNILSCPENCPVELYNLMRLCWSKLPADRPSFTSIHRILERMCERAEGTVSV

DAPK1(h) = DAPK1(h) (Homo sapiens, UniProt P53355)
Fms(Y969C)(h) = Fms(Y969C)(h) (Homo sapiens, UniProt P07333, Y969C)
PKBβ(h) = PKBβ(h) (Homo sapiens, UniProt P31751); details: 100 μM
JNK3(h) = JNK3(h) (Homo sapiens, UniProt P53779); details: 100 μM
Pim-3(h) = Pim-3(h) (Homo sapiens, UniProt Q86V86); details: 100 μM
GRK7(h) = molecular target: T2, GRK7(h) (Homo sapiens, UniProt Q8WTQ7); details: 100 μM
T2 sequence (Q8WTQ7 1-553): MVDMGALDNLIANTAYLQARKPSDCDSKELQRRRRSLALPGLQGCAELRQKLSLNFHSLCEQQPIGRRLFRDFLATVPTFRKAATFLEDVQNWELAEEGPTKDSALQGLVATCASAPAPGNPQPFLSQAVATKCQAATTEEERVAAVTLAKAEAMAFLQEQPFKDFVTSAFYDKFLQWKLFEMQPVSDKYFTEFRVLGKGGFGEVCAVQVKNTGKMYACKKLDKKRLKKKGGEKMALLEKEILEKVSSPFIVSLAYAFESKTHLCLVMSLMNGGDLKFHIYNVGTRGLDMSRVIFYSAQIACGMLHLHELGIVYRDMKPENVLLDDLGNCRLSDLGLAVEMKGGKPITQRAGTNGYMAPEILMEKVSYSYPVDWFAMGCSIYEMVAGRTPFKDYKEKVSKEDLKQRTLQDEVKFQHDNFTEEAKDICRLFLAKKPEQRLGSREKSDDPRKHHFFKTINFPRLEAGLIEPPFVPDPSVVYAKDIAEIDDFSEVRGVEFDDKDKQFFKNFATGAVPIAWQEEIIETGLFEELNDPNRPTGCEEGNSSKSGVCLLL

Rse(h) = molecular target: T3, Rse(h) (Homo sapiens, UniProt Q06418); details: 100 μM
T3 sequence (Q06418 41-890): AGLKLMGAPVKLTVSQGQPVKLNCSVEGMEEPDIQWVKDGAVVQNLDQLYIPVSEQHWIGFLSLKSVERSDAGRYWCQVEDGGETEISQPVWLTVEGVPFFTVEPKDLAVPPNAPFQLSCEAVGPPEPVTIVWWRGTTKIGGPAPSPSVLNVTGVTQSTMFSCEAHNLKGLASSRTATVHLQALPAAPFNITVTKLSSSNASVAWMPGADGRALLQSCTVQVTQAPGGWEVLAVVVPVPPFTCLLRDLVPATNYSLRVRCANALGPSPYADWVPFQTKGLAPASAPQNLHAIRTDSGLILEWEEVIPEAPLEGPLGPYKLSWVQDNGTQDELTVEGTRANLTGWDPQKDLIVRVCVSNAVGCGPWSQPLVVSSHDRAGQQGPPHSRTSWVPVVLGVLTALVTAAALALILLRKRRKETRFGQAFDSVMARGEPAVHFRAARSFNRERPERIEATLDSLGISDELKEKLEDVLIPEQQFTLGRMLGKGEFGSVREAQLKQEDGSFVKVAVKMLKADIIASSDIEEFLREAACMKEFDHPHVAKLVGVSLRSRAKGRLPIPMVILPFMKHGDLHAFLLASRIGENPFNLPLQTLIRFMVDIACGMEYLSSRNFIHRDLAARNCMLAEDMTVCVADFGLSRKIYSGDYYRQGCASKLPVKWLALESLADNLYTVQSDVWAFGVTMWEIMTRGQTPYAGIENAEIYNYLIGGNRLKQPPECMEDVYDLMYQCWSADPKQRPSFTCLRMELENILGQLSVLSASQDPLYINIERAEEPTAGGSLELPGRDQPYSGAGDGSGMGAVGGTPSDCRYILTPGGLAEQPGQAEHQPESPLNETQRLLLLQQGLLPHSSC

NEK6(h) = NEK6(h) (Homo sapiens, UniProt Q9HC98); details: 100 μM
Lck(h) activated = Lck(h) activated (Homo sapiens, UniProt P06239); details: 100 μM
PKCη(h) = PKCη(h) (Homo sapiens, UniProt P24723); details: 100 μM
IR(h) = IR(h) (Homo sapiens, UniProt P06213); details: 100 μM

DAPK1(h), sequence (P53355 whole entry): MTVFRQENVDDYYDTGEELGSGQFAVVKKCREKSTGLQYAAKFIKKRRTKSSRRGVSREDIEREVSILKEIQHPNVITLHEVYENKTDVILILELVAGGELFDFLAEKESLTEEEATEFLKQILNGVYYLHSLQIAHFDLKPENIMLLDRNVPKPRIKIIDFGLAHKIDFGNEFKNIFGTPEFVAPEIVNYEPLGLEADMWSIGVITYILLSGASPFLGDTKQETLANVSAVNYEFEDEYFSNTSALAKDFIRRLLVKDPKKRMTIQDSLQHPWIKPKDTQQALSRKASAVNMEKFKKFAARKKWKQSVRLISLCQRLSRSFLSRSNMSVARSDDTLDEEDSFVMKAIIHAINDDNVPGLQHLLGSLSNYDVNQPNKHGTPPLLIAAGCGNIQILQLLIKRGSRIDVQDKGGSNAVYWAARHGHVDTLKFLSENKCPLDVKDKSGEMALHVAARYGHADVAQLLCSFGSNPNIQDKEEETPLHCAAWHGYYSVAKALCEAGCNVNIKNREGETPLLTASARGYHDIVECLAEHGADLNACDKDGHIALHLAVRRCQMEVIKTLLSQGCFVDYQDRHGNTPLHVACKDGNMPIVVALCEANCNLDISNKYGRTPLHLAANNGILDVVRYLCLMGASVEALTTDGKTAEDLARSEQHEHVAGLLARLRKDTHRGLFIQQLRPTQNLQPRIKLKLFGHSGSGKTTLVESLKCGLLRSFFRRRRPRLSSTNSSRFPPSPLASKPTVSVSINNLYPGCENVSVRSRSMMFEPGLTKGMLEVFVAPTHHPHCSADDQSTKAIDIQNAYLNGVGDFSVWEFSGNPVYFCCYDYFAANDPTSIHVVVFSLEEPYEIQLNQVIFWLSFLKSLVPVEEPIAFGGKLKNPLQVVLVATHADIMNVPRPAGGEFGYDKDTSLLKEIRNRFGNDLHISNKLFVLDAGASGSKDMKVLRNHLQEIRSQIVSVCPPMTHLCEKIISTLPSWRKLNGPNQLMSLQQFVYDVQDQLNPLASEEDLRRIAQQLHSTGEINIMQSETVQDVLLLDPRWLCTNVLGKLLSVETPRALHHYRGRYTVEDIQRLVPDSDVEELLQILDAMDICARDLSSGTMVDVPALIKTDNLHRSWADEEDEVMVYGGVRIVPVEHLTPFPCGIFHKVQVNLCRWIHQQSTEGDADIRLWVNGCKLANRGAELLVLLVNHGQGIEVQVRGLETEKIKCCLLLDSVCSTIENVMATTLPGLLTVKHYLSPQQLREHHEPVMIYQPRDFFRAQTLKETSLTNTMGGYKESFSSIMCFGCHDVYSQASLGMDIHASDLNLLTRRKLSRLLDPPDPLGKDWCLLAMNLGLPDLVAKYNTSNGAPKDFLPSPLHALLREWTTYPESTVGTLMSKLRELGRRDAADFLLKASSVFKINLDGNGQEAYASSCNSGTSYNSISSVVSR
Lck(h) activated, sequence (P06239 whole entry): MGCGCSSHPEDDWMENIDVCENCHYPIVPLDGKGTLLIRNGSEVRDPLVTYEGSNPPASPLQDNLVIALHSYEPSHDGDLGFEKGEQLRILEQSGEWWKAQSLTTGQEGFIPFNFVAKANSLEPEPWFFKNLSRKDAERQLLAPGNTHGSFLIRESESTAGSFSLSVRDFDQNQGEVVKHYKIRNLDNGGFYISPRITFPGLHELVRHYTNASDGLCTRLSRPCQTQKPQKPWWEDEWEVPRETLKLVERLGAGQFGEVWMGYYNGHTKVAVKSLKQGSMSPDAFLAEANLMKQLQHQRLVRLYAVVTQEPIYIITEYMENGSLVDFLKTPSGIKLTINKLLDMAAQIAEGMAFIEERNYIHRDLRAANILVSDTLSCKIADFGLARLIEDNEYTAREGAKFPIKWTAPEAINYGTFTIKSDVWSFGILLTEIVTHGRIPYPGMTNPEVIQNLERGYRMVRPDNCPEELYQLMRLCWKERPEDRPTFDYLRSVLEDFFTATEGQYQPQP
PKCη(h), sequence (P24723 whole entry): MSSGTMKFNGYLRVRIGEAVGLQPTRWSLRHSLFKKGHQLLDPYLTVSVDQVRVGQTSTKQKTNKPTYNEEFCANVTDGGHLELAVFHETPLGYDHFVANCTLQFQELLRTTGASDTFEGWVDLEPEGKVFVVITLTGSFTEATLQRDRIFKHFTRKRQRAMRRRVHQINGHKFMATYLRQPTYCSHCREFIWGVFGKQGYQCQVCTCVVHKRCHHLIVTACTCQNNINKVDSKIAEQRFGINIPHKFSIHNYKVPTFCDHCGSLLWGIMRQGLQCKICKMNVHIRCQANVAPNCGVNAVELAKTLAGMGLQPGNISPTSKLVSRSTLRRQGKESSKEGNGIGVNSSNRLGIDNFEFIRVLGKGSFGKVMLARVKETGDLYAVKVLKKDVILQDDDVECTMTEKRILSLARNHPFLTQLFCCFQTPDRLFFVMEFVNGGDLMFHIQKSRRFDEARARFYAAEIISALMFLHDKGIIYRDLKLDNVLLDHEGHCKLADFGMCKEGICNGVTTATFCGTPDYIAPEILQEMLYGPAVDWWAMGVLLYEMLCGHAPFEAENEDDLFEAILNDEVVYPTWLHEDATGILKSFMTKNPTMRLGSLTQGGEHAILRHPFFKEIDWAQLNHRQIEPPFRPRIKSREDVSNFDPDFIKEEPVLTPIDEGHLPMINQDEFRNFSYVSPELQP
NEK6(h), sequence (Q9HC98 whole entry): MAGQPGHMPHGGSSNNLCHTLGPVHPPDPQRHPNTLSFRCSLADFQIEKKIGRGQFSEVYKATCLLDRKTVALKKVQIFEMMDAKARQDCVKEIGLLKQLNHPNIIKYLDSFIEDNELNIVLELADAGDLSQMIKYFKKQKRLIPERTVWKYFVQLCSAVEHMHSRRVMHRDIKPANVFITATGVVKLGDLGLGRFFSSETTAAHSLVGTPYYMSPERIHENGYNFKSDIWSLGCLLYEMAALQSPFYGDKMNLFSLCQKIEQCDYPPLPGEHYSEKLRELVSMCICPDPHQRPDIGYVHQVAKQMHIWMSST
PKBβ(h), sequence (P31751 whole entry): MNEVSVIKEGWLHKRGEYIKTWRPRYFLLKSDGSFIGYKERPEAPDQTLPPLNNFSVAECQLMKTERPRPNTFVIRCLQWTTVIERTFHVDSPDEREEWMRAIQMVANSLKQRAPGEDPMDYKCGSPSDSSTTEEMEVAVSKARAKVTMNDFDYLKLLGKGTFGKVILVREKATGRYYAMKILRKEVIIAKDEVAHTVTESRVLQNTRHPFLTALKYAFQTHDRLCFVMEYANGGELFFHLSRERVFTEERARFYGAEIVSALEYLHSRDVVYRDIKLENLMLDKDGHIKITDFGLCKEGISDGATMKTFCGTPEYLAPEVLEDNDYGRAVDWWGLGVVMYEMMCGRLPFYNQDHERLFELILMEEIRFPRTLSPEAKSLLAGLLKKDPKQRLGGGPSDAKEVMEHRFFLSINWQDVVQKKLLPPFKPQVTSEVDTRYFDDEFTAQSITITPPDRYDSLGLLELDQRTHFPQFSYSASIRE
JNK3(h), sequence (P53779 whole entry): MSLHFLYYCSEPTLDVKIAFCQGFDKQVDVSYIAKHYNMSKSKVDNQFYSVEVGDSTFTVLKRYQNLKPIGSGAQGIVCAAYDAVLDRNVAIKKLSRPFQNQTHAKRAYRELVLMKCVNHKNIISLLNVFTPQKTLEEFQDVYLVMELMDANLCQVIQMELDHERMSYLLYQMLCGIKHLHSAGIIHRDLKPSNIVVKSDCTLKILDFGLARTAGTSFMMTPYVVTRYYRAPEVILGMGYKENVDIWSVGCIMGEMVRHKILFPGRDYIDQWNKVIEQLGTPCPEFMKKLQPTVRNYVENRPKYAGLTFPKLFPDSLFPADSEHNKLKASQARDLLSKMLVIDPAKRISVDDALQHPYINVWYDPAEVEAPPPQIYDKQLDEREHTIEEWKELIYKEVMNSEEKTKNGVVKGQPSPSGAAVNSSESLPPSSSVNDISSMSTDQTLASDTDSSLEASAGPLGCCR
FGFR1(V561M)(h), sequence (P11362 22-822 V561M): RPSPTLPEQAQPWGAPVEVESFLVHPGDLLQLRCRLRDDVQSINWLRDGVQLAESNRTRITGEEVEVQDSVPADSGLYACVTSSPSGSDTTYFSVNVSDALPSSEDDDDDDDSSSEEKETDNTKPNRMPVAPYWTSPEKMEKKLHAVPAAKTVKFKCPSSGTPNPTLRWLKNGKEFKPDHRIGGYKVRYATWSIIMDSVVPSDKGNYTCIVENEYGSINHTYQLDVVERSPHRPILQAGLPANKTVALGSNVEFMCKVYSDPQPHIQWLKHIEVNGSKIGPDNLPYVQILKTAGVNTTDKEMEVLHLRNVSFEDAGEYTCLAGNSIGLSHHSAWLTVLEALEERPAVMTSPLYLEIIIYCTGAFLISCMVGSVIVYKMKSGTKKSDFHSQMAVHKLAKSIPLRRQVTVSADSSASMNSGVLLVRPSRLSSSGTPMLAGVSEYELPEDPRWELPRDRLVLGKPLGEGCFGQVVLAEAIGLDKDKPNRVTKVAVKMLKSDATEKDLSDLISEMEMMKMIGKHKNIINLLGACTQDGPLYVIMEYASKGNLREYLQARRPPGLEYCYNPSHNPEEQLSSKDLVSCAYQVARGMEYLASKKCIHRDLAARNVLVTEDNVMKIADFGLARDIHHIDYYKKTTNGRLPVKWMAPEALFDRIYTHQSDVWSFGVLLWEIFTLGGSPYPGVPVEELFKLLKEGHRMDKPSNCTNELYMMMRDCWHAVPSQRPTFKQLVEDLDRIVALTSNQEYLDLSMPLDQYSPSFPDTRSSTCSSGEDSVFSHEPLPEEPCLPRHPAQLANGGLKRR

Row | Substance | activity at 100 µM (FGFR1(V561M)(h)) [%] | activity at 100 µM (MuSK(h)) [%] | activity at 100 µM (DAPK1(h)) [%] | activity at 100 µM (Fms(Y969C)(h)) [%] | % activity (PKBβ(h)) [%] | % activity (JNK3(h)) [%] | % activity (Pim-3(h)) [%] | % activity (MuSK(h); 100 μM) [%] | % activity (GRK7(h)) [%] | % activity (DAPK1(h); 100 μM) [%] | % activity (Rse(h)) [%] | % activity (NEK6(h)) [%] | % activity (Lck(h) activated) [%] | % activity (PKCη(h)) [%] | % activity (IR(h)) [%] | % activity (FGFR1(V561M)(h); 100 μM) [%] | % activity (Fms(Y969C)(h); 100 μM) [%]
1 | H-YARAAARQARAKALARQLGVAA-OH [MMI-0100] | 108 | 85 | 97 | 126 | – | – | – | – | – | – | – | – | – | – | – | – | –
2 | HRRIKAWLKKIKALARQLGVAA (Mammalian) [MMI-0500] | – | – | – | – | 21 | 171 | 37 | 27 | 93 | 0 | 63 | 49 | 76 | 45 | 95 | – | –
3 | YARAAARQARAKALNRQLGVA (Mammalian) [MMI-0200] | – | – | – | – | 250 | 90 | 94 | – | 124 | – | 88 | 98 | 90 | 101 | 90 | 72 | 88
